In patent US20040005320A1 (ZymoGenetics, published 2004):

Tests used:
[1] = biological target: T1, IL-20RB (human, UniProt Q6UXL0 30-311); assay: radiolabeled ligand binding on stably transfected BHK cells
T1 construct: Expressed alone on stably transfected BHK cells; also called IL-20RB subunit alone
T1 sequence: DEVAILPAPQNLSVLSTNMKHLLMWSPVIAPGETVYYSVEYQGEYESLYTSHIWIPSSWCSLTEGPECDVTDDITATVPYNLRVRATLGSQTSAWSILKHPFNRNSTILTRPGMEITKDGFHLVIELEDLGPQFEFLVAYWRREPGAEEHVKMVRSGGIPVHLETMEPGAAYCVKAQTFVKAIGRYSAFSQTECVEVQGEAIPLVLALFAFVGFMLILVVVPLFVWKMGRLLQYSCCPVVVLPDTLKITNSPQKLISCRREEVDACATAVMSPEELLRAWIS
Description: (§1) The specificity and affinity of IL-20 for its receptor was determined using BHK cells stably transfected with IL-20RA, IL-20RB or both receptor subunits. […] Binding of ¹²⁵I-labeled IL-20 was eliminated in the presence of 100-fold excess of unlabeled IL-20 but not with 100-fold excess of the unrelated cytokine, IL-21.

[2] = biological target: T2, IL-20RA (human, UniProt Q9UHF4 30-553); assay: as above
T2 construct: Expressed alone on stably transfected BHK cells; also called Zcytor7; IL-20RA subunit alone
T2 sequence: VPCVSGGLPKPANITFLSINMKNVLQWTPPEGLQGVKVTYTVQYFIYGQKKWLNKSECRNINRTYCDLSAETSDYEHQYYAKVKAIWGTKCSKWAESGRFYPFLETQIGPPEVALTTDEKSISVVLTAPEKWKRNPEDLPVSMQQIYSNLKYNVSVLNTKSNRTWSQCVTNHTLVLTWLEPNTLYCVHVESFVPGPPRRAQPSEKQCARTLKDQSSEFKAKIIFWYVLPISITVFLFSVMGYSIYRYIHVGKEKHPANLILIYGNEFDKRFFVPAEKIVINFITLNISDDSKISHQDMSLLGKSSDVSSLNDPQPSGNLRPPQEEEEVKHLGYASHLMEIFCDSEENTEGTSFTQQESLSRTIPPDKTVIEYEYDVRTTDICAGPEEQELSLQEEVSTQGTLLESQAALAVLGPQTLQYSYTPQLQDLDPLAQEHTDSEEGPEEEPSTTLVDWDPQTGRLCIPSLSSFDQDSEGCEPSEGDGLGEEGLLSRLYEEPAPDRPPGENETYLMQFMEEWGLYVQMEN
Description: as §1

[3] = biological target: T3, IL-20RA/IL-20RB heterodimeric receptor (human, UniProt Q9UHF4 30-553; Q6UXL0 30-311); assay: 125I-labeled IL-20 binding on BHK cells expressing IL-20RA and IL-20RB
T3 construct: Both subunits were co-expressed on transfected COS, BHK or BaF3 cells, or were endogenous on human HaCaT keratinocytes; also called IL-20RB/IL-20RA heterodimer; IL-20 receptor
T3 sequence 1: T2 sequence
T3 sequence 2: T1 sequence
Description: as §1

B1: IL-20 (ligand, UniProt Q9NYY1 25-176, looked up)
chain: LKTLNLGSCVIATNLQEIRNGFSEIRGSVQAKDGNIDIRILRRTESLQDTKPANRCCLLRHLLRLYLDRVFKNYQTPDHYTLRKISSLANSFLTIKKDLRLCHAHMTCHCGEEAMKKYSQILSHFEKLEPQAAVVKALGELDILLQWMEETE
notes: also called biotin-labeled IL-20 protein; biotinylated IL-20
In the case of B1, the binding result [1] is reported as “no binding”, the binding result [2] is reported as “no binding” and the Kd [3] is reported as roughly 1.5 nM.
